For assay [1], the target named is T1, human plasma kallikrein (human, UniProt P03952 20-390; P03952 391-638).
T1 construct: two disulfide linked chains; also called pKal; human pKal
Put plainly: apparent Ki (Ki,app), human pKal.

The target in the next assay is T2, mouse plasma kallikrein (mouse, UniProt P26262 20-638).
T2 construct: mature; Source of the mouse enzyme used for Ki,app is not described; also called mouse pKal
Kind of assay: apparent Ki (Ki,app), mouse pKal.

In assay [2] the target is T1, human plasma kallikrein. Put plainly: cell-based or functional assay.

Usually % inhibition stands for the drop in the measured response relative to a control, in per cent. Read a low % inhibition as a weak effect.

T1 sequence (P03952 20-390, chain 1 of 2): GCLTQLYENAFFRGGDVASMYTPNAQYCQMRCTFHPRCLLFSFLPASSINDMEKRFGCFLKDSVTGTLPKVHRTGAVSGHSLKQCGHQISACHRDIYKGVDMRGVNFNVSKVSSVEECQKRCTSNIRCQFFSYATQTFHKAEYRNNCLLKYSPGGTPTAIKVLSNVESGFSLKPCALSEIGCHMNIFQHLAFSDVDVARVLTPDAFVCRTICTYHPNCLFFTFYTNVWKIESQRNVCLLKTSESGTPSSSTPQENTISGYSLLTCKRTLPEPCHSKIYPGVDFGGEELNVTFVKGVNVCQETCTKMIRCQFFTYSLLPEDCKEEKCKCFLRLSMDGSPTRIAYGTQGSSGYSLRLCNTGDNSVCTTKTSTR
T1 sequence (P03952 391-638, chain 2 of 2): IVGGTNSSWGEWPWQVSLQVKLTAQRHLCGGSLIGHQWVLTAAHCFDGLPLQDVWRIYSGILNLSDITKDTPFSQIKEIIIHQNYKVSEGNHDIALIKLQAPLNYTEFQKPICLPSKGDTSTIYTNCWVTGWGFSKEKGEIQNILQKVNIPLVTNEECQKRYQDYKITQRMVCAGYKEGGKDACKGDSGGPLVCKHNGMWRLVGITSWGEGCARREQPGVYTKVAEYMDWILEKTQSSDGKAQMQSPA
T2 sequence (P26262 20-638 limits assumed): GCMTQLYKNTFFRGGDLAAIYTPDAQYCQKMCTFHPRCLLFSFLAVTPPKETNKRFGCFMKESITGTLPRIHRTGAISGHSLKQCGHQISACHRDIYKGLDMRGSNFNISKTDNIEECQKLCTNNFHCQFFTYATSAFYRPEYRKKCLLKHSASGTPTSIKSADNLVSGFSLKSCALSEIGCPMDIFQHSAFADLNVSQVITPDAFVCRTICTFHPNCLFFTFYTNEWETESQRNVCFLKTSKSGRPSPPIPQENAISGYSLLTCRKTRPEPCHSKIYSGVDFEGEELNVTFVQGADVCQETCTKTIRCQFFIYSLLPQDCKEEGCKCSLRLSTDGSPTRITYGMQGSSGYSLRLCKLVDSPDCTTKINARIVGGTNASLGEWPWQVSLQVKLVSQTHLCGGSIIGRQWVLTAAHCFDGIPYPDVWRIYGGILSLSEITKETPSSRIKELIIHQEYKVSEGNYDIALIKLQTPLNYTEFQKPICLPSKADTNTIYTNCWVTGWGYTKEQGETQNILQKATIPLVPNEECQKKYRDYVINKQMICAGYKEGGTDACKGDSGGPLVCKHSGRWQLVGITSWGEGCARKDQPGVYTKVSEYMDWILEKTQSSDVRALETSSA

B1: M6-D09 (antibody, V domains shown)
VH: EVQLLESGGGLVQPGGSLRLSCAASGFTFSFYYMVWVRQAPGKGLEWVSVIYPSGGITVYADSVKGRFTISRDNSKNTLYLQMNSLRAEDTAVYYCARDKWAVMPPYYYYAMDVWGQGTTVTVSS
VL: DIQMTQSPSSLSASVSDRVTITCRASQSIRNYLNWYQQKPSKAPNLLIYAASTLQSGVPARFSGSGSGTDFTLTISSLQPEDFATYYCQQLSGYPHTFGQGTKLEIK
notes: HC as printed runs into CH1
As to B1, the Ki with human plasma kallikrein [1] turned out to be 5.9 nM; with mouse plasma kallikrein, 3.9 nM.

B2: M29-D09 (antibody, V domains shown)
VH: EVQLLESGGGLVQPGGSLRLSCAASGFTFSWYTMVWVRQAPGKGLEWVSYIYPSGGATFYADSVKGRFTISRDNSKNTLYLQMNSLRAEDTAVYYCAMGSYDYIWGFYSDHWGQGTLVTVSS
VL: QSALTQPPTVSVSPGQTARITCSGNKLGDKYVAWYQQKPGQSPMLVIYQDTKRPSAIPERFSGSNSANTATLSISGTQALDEADYYCQAWDSSIVIFGGGTRLTVL
notes: HC as printed runs into CH1
Turning to B2, the Ki with human plasma kallikrein [1] turned out to be 0.7 nM.

B3: M209-D02 (Fab, V domains shown)
VH: EVQLLESGGGLVQPGGSLRLSCAASGFTFSHYLMTWVRQAPGKGLEWVSYISPSGGHTIYADSVKGRFTISRDNSKNTLYLQMNSLRAEDTAVYYCARVARGITARSRTSYFDDWGQGTLVTVSS
VL: DIQMTQSPGTLSLSPGERATLSCRTSQFVNSNYLAWYQQTPSQAPRLLIYGASSRATGIPDRFSGTGYGTDFTLTISRLEPEDYGTYYCQQSSRTPWTFGQGTRVEIK
For the molecule B3, the “% inhibition at 10 nM” value in the assay with human plasma kallikrein [2] was determined as 74.7%.

The record behind these values is US20100183625A1 (published 2010).
